# Assay results as given in PMC9053816, “A polypeptide model for toxic aberrant proteins induced by aminoglycoside antibiotics” (PLoS ONE, 2022).
# *: point of attachment. FITC = O=C1OC2(c3ccc(O)cc3Oc3cc(O)ccc32)c2ccc(NC(=S)*)cc21
# B1: NR peptide, FITC-TEKANRLLLTGKTEQ (canonical DnaK peptide substrate NRLLLTG with flanking extensions) (peptide)
# peptide: {FITC}-TEKANRLLLTGKTEQ-NH2
# notes: canonical DnaK peptide substrate NRLLLTG flanked by the N-terminal extension TEKA and the C-terminal extension KTEQ; source: synthetic peptide (Peptide 2.0, Inc.)
# B2: KL peptide, FITC-TEKAKLVIKLLALGKTEQ (KL decapeptide of ARF48 with flanking extensions) (peptide)
# peptide: {FITC}-TEKAKLVIKLLALGKTEQ-NH2
# notes: ARF48 is encoded by a +1 alternate reading frame of an Arabidopsis thaliana cDNA and is not a natural protein; The core decapeptide comes from an aberrant alternate-frame polypeptide, not from a natural protein; also called synthetic KL decapeptide; source: synthetic peptide (Peptide 2.0, Inc.)
# Target: T1, 6His-DnaK (E. coli DnaK protein) (E. coli, UniProt P0A6Y8 1-638)
# T1 construct: molecular chaperone DnaK of E. coli, from the ASKA expression clone; The functional rows concern endogenous DnaK in E. coli BL21 cells; source: purified from the ASKA expression clone by chromatography on Ni-NTA agarose
# Assay: MST; 20 nM fluorescein-labelled peptide incubated with varying concentrations of DnaK; 50 mM Tris pH 7.4, 150 mM NaCl, 10 mM MgCl2, 0.05% Tween-20, 0.05% BSA; 1 h at 20°C; Monolith NT.115; three independent trials
# Conditions: both partners purified
# T1 sequence (P0A6Y8 whole entry): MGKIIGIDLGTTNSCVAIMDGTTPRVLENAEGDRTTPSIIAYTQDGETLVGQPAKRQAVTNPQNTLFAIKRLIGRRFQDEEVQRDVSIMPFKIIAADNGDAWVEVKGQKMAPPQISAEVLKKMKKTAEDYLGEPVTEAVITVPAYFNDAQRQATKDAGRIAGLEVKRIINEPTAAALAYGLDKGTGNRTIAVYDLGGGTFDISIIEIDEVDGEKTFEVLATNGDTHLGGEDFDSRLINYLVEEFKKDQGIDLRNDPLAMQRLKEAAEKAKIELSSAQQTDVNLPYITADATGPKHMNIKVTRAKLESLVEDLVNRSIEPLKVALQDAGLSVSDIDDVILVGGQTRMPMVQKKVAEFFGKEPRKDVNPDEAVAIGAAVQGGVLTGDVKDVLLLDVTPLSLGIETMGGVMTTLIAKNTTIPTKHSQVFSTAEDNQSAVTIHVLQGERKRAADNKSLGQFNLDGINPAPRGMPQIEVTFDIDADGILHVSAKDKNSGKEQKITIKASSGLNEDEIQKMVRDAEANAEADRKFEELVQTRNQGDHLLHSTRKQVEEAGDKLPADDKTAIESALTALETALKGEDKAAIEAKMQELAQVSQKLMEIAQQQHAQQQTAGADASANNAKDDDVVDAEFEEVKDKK
row,Binder,binding result
1,B1,binds
2,B2,binds
